Source: paper PMC4537050 (2015)

T1: Human recombinant FGF8b (fibroblast growth factor-8b) (human)
T1 chain: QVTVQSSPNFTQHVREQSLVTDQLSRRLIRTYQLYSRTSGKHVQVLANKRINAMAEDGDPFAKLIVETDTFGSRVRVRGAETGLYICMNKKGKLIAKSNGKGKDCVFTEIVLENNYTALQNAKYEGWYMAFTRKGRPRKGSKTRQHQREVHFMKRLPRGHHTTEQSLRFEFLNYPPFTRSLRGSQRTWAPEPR


Biological target: T1, Human recombinant FGF8b (fibroblast …)
Assay: SPR

Binder | Kd
Ac-APCRA-NH2 [Ac-APCRA-NH2, partially scrambled peptide] | > 3 mM
H-ARPCA-NH2 [H-ARPCA-NH2, non-acetylated peptide] | 2.9 mM
Ac-ARPMA-NH2 [Ac-ARPMA-NH2] | > 3 mM
Ac-ARPCG-NH2 [Ac-ARPCG-NH2] | 1.9 mM
Ac-ARACA-NH2 [Ac-ARACA-NH2] | > 3 mM
Ac-GRPCG-NH2 [Ac-GRPCG-NH2] | > 3 mM
Ac-ARGCA-NH2 [Ac-ARGCA-NH2] | > 3 mM
